From paper PMC7139957

Molecular target: laminin-111 (UniProt P19137)
Experiment: AFM single-molecule force spectroscopy; integrin coupled to PEG-functionalized cantilever, laminin-111 (3 µg/mL) coated on mica; contact 1 s, retraction 300 nm/s; rupture force of the last contact

Substance	rupture force
soluble recombinant integrin α7hiβ1 ectodomains (hinge mutant, C604 and C610 replaced by alanine), heterodimerized with the zipper domains of Fos and Jun (from UniProt P05556 21-728) (complex)	16 pN
soluble recombinant integrin α7wtβ1 ectodomains, heterodimerized with the zipper domains of Fos and Jun (from UniProt P05556 21-728) (complex)	30 pN
